The values that follow come from paper PMC11717359, “A new pipeline SPICE identifies novel JUN-IKZF1 composite elements”.

This series deals with IKZF1 (Ikaros), recombinant (Homo sapiens, UniProt Q13422 1-519). Kind of series: EMSA; 1 ug IKZF1 alone; EMSA per LI-COR kit protocol (829-07910), 100 nM IR700 probe, 4-12% TBE gel in 0.5x TBE; binding buffer, pH and temperature not stated. The following applies: protein: commercial; chain copies: 2; label: IRDye 700. A general note: A gel shift assay detects complexes by their altered migration in electrophoresis.
IKZF1 (Ikaros), recombinant, sequence (Q13422 whole entry): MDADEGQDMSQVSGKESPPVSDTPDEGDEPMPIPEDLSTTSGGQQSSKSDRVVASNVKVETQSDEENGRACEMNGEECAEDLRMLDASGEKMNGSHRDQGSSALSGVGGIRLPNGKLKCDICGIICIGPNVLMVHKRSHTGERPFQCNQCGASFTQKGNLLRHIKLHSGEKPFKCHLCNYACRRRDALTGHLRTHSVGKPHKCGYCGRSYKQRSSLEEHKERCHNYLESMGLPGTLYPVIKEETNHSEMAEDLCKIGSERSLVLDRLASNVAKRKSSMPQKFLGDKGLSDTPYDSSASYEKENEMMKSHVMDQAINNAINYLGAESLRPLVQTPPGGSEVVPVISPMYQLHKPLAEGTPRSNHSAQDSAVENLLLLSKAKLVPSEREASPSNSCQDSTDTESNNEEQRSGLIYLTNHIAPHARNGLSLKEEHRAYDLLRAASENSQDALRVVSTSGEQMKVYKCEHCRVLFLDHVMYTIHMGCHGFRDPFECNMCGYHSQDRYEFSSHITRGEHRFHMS

B1: IL10 CNS9 WT probe (dsDNA)
DNA 1: GAGGTTGCAGTTTCGTTGTGAGTCAGGCCTGCTGA
DNA 2: TCAGCAGGCCTGACTCACAACGAAACTGCAACCTC
For the molecule B1, the binding result is listed as “no binding”.
